Blank lines part the entries; values can stand above or below the molecule they belong to.
Columns and labels:
[1] = molecular target: biotinylated hBLyS-ECD (human) (UniProt Q9Y275); test: ELISA, coated antibody; biotinylated hBLyS-ECD 0.1 ng/mL
[2] = molecular target: biotinylated hBLyS-ECD (human) (UniProt Q9Y275); test: ELISA, coated antibody; biotinylated hBLyS-ECD 0.004 ng/mL
[3] = molecular target: biotinylated hBLyS-ECD (human) (UniProt Q9Y275); test: ELISA, coated antibody; biotinylated hBLyS-ECD 0.000006 ng/mL
[4] = molecular target: biotinylated hBLyS-ECD (human) (UniProt Q9Y275); test: ELISA, coated antibody; biotinylated hBLyS-ECD 0.5 ng/mL
[5] = molecular target: biotinylated hBLyS-ECD (human) (UniProt Q9Y275); test: ELISA, coated antibody; biotinylated hBLyS-ECD 0.00016 ng/mL
[6] = molecular target: biotinylated hBLyS-ECD (human) (UniProt Q9Y275); test: ELISA, coated antibody; biotinylated hBLyS-ECD 0.02 ng/mL
[7] = molecular target: biotinylated hBLyS-ECD (human) (UniProt Q9Y275); test: ELISA, coated antibody; biotinylated hBLyS-ECD 0.000032 ng/mL
[8] = molecular target: biotinylated hBLyS-ECD (human) (UniProt Q9Y275); test: ELISA, coated antibody; biotinylated hBLyS-ECD 0.0008 ng/mL
[9] = molecular target: T1, biotinylated hBLyS-ECD (human, UniProt Q9Y275 134-285, biotinylated with Biotin-X-X-NHS (molar ratio 7:1), sites not stated); test: receptor-ligand blocking ELISA: BAFF R coated, biotinylated hBLyS-ECD added with titrated antibody, HRP-avidin; blocked partner: BAFF R
T1 construct: The hBLyS-ECD of Embodiment 1 after biotinylation (Embodiment 2); also called biotinylated immunogen; BLyS protein; not shown: His tag of the pCPC vector

[10] = molecular target: T1, biotinylated hBLyS-ECD; test: ELISA: biotinylated hBLyS-ECD captured on streptavidin, antibody titrated, HRP secondary antibody
[11] = molecular target: T1, biotinylated hBLyS-ECD; test: as above; remark: listed apart in the source
[12] = molecular target: T1, biotinylated hBLyS-ECD; test: ELISA, biotinylated hBLyS-ECD captured on streptavidin; antibody 2.67 nM
Procedure: (§1) Streptavidin was first diluted to a final concentration of 1.0 μg/mL with PBS, and then 50 μL of diluted streptavidin per well was aliquoted into 96-well ELISA plate, which was subsequently sealed with plastic film and incubated at 4° C. overnight. On the next day the plate was washed four times with the plate washing buffer [PBS buffer containing 0.05% (v/v) Tween20] and added with the blocking solution [PBS buffer containing 0.05% (v/v) Tween20 and 1% (w/w) BSA] and blocked for 2 hours at 37° C. The blocking solution was removed, the biotinylated hBLyS-ECD prepared in Embodiment 2 was diluted with PBS to a final concentration of 50 ng/mL and then aliquoted into the 96-well ELISA plate at 50 μL per well and incubated for 1 hour at 37° C. After rinsing the plate four times with the plate washing buffer [PBS buffer containing 0.05% (v/v) Tween20], 100 μl of the purified lead antibody harvested in Embodiment 1 and 2 was pipetted into each well. After incubation for 1 hour at 37° C., the plate was rinsed four times with the plate washing buffer [PBS buffer containing 0.05% (v/v) Tween20]. HRP-labeled (horseradish peroxidase) secondary antibody (purchased from Sigma) was added in and incubated at 37° C. for 1 hour. The plate was then rinsed four times with the plate washing buffer [PBS buffer containing 0.05% (v/v) Tween20]. 100 μL of TMB substrate was aliquoted into each well and after incubation for 5 minutes at room temperature, 100 μL of stop solution (1.0 N HCl) was aliquoted into each well. A₄₅₀ₙₘ values were read via an ELISA plate reader (SpectraMax M5e purchased from Molecular Devices) and the results were shown in FIGS. 5A-5B and Table 10.

[13] = molecular target: T1, biotinylated hBLyS-ECD; test: ELISA, biotinylated hBLyS-ECD captured on streptavidin; antibody 0.107 nM
Procedure: as §1

[14] = molecular target: T1, biotinylated hBLyS-ECD; test: ELISA, biotinylated hBLyS-ECD captured on streptavidin; antibody 66.7 nM
Procedure: as §1

[15] = molecular target: T1, biotinylated hBLyS-ECD; test: ELISA, biotinylated hBLyS-ECD captured on streptavidin; antibody 0.0213 nM
Procedure: as §1

[16] = molecular target: T1, biotinylated hBLyS-ECD; test: ELISA, biotinylated hBLyS-ECD captured on streptavidin; antibody 0.00427 nM
Procedure: as §1

[17] = molecular target: T2, human BLyS (full length, arginine 132 mutated to histidine) on CHO-K1 cells (human, UniProt Q9Y275 1-285); test: flow cytometry (FACS) on CHO-K1 hBLyS cells, Alexa 488 secondary antibody
T2 construct: also called hBLyS; CHO-K1 hBLyS
T2 sequence (Q9Y275 other isoform, or with tags, fused parts or gaps limits assumed, change not shown): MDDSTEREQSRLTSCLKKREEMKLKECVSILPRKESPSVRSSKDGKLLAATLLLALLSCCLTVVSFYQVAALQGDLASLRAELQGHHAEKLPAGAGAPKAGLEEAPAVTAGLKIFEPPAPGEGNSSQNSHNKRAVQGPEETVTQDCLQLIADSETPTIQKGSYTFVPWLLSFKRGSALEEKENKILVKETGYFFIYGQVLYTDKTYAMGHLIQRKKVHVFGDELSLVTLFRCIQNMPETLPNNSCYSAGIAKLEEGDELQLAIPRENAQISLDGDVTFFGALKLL
Procedure: (§2) The medium was aspirated completely, and the cells were rinsed once with PBS buffer (purchased from Invitrogen) and then treated with cell dispersion solution (TrypLE™ Express Enzyme, purchased from Life technology) and collected. The detailed steps are as follows: the cells were rinsed once with PBS buffer, after counting, the cells were diluted to 2×10⁶ cells/ml with PBS buffer, blocked with 2% (w/w) fetal bovine serum and incubated on ice for 30 minutes. 200 μL of which per well was aliquoted into a 96-well FACS plate and centrifuged at 2000 rpm at 4° C., then each 100 μL of the lead antibodies obtained from Embodiment 1 and 2 were aliquoted into each well and incubated on ice for 1 hour. […] After centrifuged and rinsed 3 times with FACS buffer, cells were suspended with 200 μL of FACS buffer and the results were detected and analyzed by FACS (FACS Calibur, purchased from BD). It was shown in Tables 12-13 that the lead antibody could bind to human BLyS protein on the cell surface and the lead antibody could cross-react with cynomolgus BLyS. The data in the table is MFI, the average fluorescence intensity of the cell population.

[18] = molecular target: T1, biotinylated hBLyS-ECD; test: ELISA: biotinylated hBLyS-ECD captured on streptavidin, antibody titrated, HRP secondary antibody [label printed at the top of D00004]
Procedure: as §1

[19] = molecular target: T3, cynomolgus BLyS (full length, arginine 132 mutated to histidine) on CHO-K1 cells (cynomolgus, UniProt Q9Y275 1-285 (human entry)); test: flow cytometry (FACS) on CHO-K1 cynoBLyS cells, Alexa 488 secondary antibody
T3 construct: also called cyno BLyS; CHO-K1 cynoBLyS
T3 chain: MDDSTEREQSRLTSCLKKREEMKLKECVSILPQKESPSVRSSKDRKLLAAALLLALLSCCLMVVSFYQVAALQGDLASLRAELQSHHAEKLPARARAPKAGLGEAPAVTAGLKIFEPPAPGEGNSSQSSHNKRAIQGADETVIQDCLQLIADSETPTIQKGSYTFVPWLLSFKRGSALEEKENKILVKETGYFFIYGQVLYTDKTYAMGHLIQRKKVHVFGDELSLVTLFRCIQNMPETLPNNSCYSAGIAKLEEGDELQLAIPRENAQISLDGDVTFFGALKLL
Procedure: as §2

[20] = molecular target: T1, biotinylated hBLyS-ECD; test: ELISA, biotinylated hBLyS-ECD captured on streptavidin; antibody 0.534 nM
Procedure: as §1

[21] = molecular target: T1, biotinylated hBLyS-ECD; test: ELISA, biotinylated hBLyS-ECD captured on streptavidin; antibody 13.3 nM
Procedure: as §1

[22] = molecular target: T1, biotinylated hBLyS-ECD; test: ELISA, biotinylated hBLyS-ECD captured on streptavidin; antibody 0 nM (blank)
Procedure: as §1

Molecule: BLyS antibody (purchased from GSK)
OD450 nm [1]: 3.36
OD450 nm [2]: 3.14
OD450 nm [3]: 0.08
OD450 nm [4]: 3.39
OD450 nm [5]: 0.54
OD450 nm [6]: 3.24
OD450 nm [7]: 0.19
OD450 nm [8]: 2.01

B3: 8E7D9C7F5 (antibody, V domains shown)
VH: QVQLQQSGVELARPGASVKLSCKASGYTFTSYGISWVKQRTGQALEWIGEIYPRSGNTYYNEKFKGKATLTADKSSSTAYMELRSLTSEDSAVYFCARSGPITTLVATDYGMDYWGQGTSVTVSS
VL: DIVLTQSPASLAVSLGQRATISCRASKSVSTSSYSYMHWYQQKPGQPPKLLIKFASNLESGVPARFSGSGSGTDFTLNIHPVEEEDAATYYCQHSREFPYTFGGGTKLEIK
notes: Mouse hybridoma antibody purified on Protein G
OD450 nm [12]: 2.53
OD450 nm [13]: 0.946
OD450 nm [14]: 2.72
OD450 nm [15]: 0.291
OD450 nm [16]: 0.115
EC50 (read off the curve) [17]: ~100 pM
EC50 (read off the curve) [18]: ~200 pM
EC50 (read off the curve) [19]: ~100 pM
OD450 nm [20]: 2.06
OD450 nm [21]: 2.56
OD450 nm [22]: 0.0564

The next lines start with the values.

IC50 (read off the curve) [9]: ~80 pM
EC50 (read off the curve) [10]: ~70 pM
B1: c111D10D6G3 (antibody, human IgG1, V domains shown)
VH: QVQLQQPGAELVKPGASVKMSCKASGYTFTRHWITWVKQRPGQGLEWIGDIFPGSGSINYNEKFKSEATLTVEKSSSTAYMQLSSLTSEDSAVYYCARGDVDVWGTGTTVTVSS
VL: DIQMTQSPSSLSASLGERVSLTCRASQEIRGYLSWLQQKPNGTIKRLIYAASTLDSGVPKRFSATRSGSDFSLTISSLESEDFADYYCLQYASYPFTFGSGTKLEIK
notes: also called BLyS chimeric antibody

IC50 (read off the curve) [9]: ~2000 pM
EC50 (read off the curve) [11]: ~100 pM
EC50 (read off the curve) [10]: ~50 pM
B2: c97A3C2H4 (antibody, human IgG1, V domains shown)
VH: EVKLVESGGGLVQPGGSLKLSCAASGFTFSTYTMSWVRQTPEKRLEWVAYISYGGGSTSYPDTVKGRFTISRDNAKNTLYLQMSSLKSEDTAIYYCTRHVTVVENSMDYWGQGTSVTVSS
VL: DILLTQSPDILSVSPGERVSFSCRASQSIGTSIHWYQQRTNGSPRLLIKYVSESFSGTPSRFSGSGSGTAFTLTINSVESEDIADYYCQQTHSWPWTFGGGTKLEIK
notes: as for B1

Source: patent publication US20210347873A1 (SHANGHAI PHARMAEXPLORER, published 2021)
